Laboratory results published in patent publication US9844563B2, “Compositions, kits, and methods to induce acquired cytoresistance using stress protein inducers” (FRED HUTCHINSON CANCER RESEARCH CENTER, priority 2014, dated 2017).

Tests used:
[1] = Maleate model of AKI (FeS, SnPP, FeS+SnPP); format: in vivo, mice; settings: IV 1 mg FeS and/or 1 μmole SnPP 18 hrs before IP Na maleate 800 mg/Kg; 18 hrs later
Source text: Effects of Fe sucrose (FeS)/tin protoporphyrin (SnPP) on AKI severity. Maleate model of AKI. When injected into rodents, maleate undergoes relatively selective proximal tubule cell uptake via organic anion transporters. Once intracellular accumulation occurs, maleate is a preferred substrate for succinyl-CoA:3-oxoacid CoA transferase. […] Ample levels of CoA are essential for fatty acid “activation”, allowing for their subsequent metabolism through the Krebs cycle, yielding ATP. In the absence of this process, proximal tubule ATP depletion and cell injury result. Additionally, maleate conjugates the sulfhydryl group of glutathione (GSH), culminating in GSH depletion and potential oxidant tubular stress.
The following experiment tested whether FeS, SnPP or combined FeS+SnPP can mitigate this form of acute kidney injury (AKI). Twenty seven mice were subjected to 200 μL IV tail injections of one of the following: 1) vehicle (phosphate buffered saline, PBS; n, 10); 2) 1 mg FeS (American Regent (Shirley, N.Y.; n, 3); 3) 1 μmole SnPP (Frontier Scientific, Logan, Utah; n 7), or FeS+SnPP, n, 7). Eighteen hrs later, all mice received an IP injection of Na maleate (800 mg/Kg; in 500 ul of PBS). […] The severity of kidney injury was assessed by determining plasma blood urea nitrogen (BUN) and plasma creatinine (PCr) concentrations.

[2] = system: heme oxygenase 1 (HO-1); assay: Renal cortical induction of HO-1 by FeS, SnPP and B12 (ELISA, RT-PCR); format: in vivo, mice
Method: Effects of FeS, SnPP, and B12 on renal cortical induction of heme oxygenase 1 (HO-1). The following experiments assessed the effects of FeS, SnPP, and B12 on the possible induction of the cytoprotective protein HO-1. To this end, mice were injected with each of these agents, as noted above. Either 4 or 18 hrs later, they were anesthetized and the kidneys were removed through a midline abdominal incision. The renal cortices were dissected on ice and then extracted for protein and mRNA. The samples were then assayed for HO-1 protein by ELISA, and HO-1 mRNA by RT-PCR, factored by GAPDH levels. Five normal mice provided control values.

[3] = Serum creatinine after 2 hr subcutaneous infusion of N-myoglobin (constant SnPP); format: in vivo, mice; settings: 2 hr subcutaneous infusion 1, 3, 6, 12, or 25 mg/Kg, SnPP constant 1 μmole; 18 hrs later
Method: Mice were subjected to a 2 hr subcutaneous infusion of 1, 3, 6, 12, or 25 mg/Kg of nitrited myoglobin (holding SnPP at a constant dose of 1 μmole). Eighteen hrs later, potential renal injury was assessed by measuring serum creatinine concentrations.
An obvious concern by applying this prophylactic strategy to patients is potential renal and/or extrarenal toxicities. […] Furthermore, it was previously documented in a cell culture system that nitrite addition markedly reduces myoglobin's cytotoxic effects by 75% (unpublished data, 2014). To assess the potential in vivo margin of safety for N-Mgb+SnPP (see Supplemental FIGs.), the maximal amount of N-Mgb that could be given to mice before nephrotoxicity was observed was tested. Up to 25 times the employed N-Mgb dose (with a constant SnPP dose) could be administered (over 2 hours) without induction of nephrotoxicity (normal BUN and creatinine, 18 hours later).

[4] = system: HK-2 cells; assay: HK-2 cell injury by MTT assay; format: cell-based; settings: equimolar Na nitrite added to 10 mg/ml myoglobin, 18 hr incubation
Method: HK-2 cells (a proximal tubule cell line derived from normal human kidney) were incubated in keratinocyte serum free medium either under normal (control) conditions or in the presence of 10 mg/mL horse skeletal muscle myoglobin or nitrited myoglobin (produced by equimolar Na nitrite addition to 10 mg/ml myoglobin). After 18 hr incubations, the severity of cell injury (% cell death) was assessed by MTT assay. Myoglobin induced 40% cell death (40% decrease in MTT cell uptake), compared to control incubated cells. Nitrite binding to myoglobin reduced cell death by 75%. Thus, nitrite binding is able to reduce myoglobin's cytotoxic effects.

[5] = system: HO-1; assay: Liver HO-1 mRNA and protein after N-Mgb, SnPP or both; format: in vivo, mice
Method: (§1) Thirty-two mice were divided into 4 equal groups: (1) control mice; (2) mice treated with 1 mg of N-Mgb injection (as a bolus through the tail vein); (3) mice treated with […] of SnPP (via tail vein); and (4) mice treated with combined N-Mgb 1 SnPP. After either 4 hours (n=16) or 18 hours (n=16), the mice were deeply anesthetized with pentobarbital (50 mg/kg), the abdomen was opened through a midline abdominal incision, and the kidneys were removed. To determine potential effects on extrarenal organs, a liver lobe and the heart were also removed. The tissues were iced and then extracted for protein and RNA (RNeasy Plus Mini; Qiagen, Valencia, Calif.) and subjected to enzyme linked immunosorbent assay (ELISA) and reverse transcriptase polymerase chain reaction (RT-PCR) for HO-1, haptoglobin, and IL-10 protein and messenger RNAs (mRNAs). Zager et al. J Am Soc Nephrol 2014;25:998-1012; Zager et al. Am J Physiol 2012;303:F139-48. As an assessment of renal function, control mice and the 18 hour after N-Mgb+SnPP—treated mice had blood urea nitrogen (BUN) and plasma creatinine levels measured. Additionally, transverse 10% formalin fixed kidney sections ([…]) were cut and stained with hematoxylin and eosin (H&E) and periodic acid Schiff (PAS) to further assess potential injury.

[6] = system: HO-1; assay: Renal cortical HO-1 mRNA (RT-PCR) and protein (ELISA) after N-Mgb, SnPP or both; format: in vivo, mice
Method: as §1

[7] = system: Haptoglobin; assay: Cardiac haptoglobin mRNA and protein after N-Mgb, SnPP or both; format: in vivo, mice
Method: as §1

[8] = system: IL-10; assay: Renal cortical IL-10 mRNA and protein after N-Mgb, SnPP or both; format: in vivo, mice
Method: as §1

[9] = system: IL-10; assay: Cardiac IL-10 mRNA and protein after N-Mgb, SnPP or both; format: in vivo, mice
Method: as §1

[10] = system: IL-10; assay: Liver IL-10 mRNA and protein after N-Mgb, SnPP or both; format: in vivo, mice
Method: as §1

[11] = system: HO-1; assay: Cardiac HO-1 mRNA and protein after N-Mgb, SnPP or both; format: in vivo, mice
Method: as §1

[12] = Glycerol model of rhabdomyolysis-induced AKI; format: in vivo, mice; settings: IV pretreatment 18 hours before glycerol; 18 hours after glycerol
Method: Assessments of cytoresistance. Glycerol model of rhabdomyolysis-induced AKI. Twenty mice were divided into 4 equal groups (controls, mice treated with N-Mgb, SnPP, and mice treated with N-Mgb+SnPP tail vein injections) as described previously. 18 hours later, the mice were briefly anesthetized with isoflurane and immediately injected with 9 mL/kg of 50% glycerol, administered in equally divided doses into each hind limb. At 18 hours after glycerol injection, the mice were anesthetized with pentobarbital, the abdomen was opened, a blood sample for BUN and creatinine assessments was obtained from the vena cava, and the kidneys were resected. The control post-glycerol group and the N-Mgb+SnPP—pretreated glycerol group had kidney sections stained with H&E.
Calculations and statistics. All values are given as the mean […] standard error of the mean. Statistical comparisons were made by unpaired Student's t test. If multiple comparisons were made, the Bonferroni correction was applied. The severity of renal histologic injury in the glycerol AKI model was graded on a […] (least to most severe tubular necrosis and cast formation observed). The histologic results were compared by Wlcoxon rank sum test. Statistical significance was taken as a P value of <0.05.

[13] = system: Haptoglobin; assay: Renal cortical haptoglobin mRNA and protein after N-Mgb, SnPP or both; format: in vivo, mice
Method: as §1

[14] = system: Haptoglobin; assay: Liver haptoglobin mRNA and protein after N-Mgb, SnPP or both; format: in vivo, mice
Method: as §1

[15] = renal cortex, 4 h after Rx treatment

What does the source list for Fe sucrose [FeS]?
reductions in BUN/PCr concentrations, maleate-induced AKI [1]: Neither SnPP alone nor FeS alone significantly altered the severity of renal injury; renal cortical HO-1 protein levels ([2]; 4 hr post IV injection): marked HO-1 protein increases; renal cortical HO-1 protein levels ([2]; 18 hr time point): remained elevated at the 18 hr time point, particularly in the case of FeS administration; renal cortical HO-1 protein levels ([2]; 18 hr time point, listed as Fe sucrose): persists for 18 hrs

For cyanocobalamin [vitamin B12], which “renal cortical HO-1 protein levels” value ([2]; 4 hr post IV injection) is on record?
The value was “marked HO-1 protein increases”.

And the “renal cortical HO-1 protein levels” value ([2]; 18 hr time point)?
The value was “persists for 18 hrs”.

B1: N-Mgb: horse skeletal muscle myoglobin converted into a nitrited form by equimolar Na nitrite (protein, UniProt P68082 2-154, looked up)
Myoglobin: GLSDGEWQQVLNVWGKVEADIAGHGQEVLIRLFTGHPETLEKFDKFKHLKTEAEMKASEDLKKHGTVVLTALGGILKKKGHHEAELKPLAQSHATKHKIPIKYLEFISDAIIHVLHSKHPGDFGADAQGAMTKALELFRNDIAAKYKELGFQG
modifications: nitrited with sodium nitrite
For B1, which “serum creatinine concentrations (potential renal injury)” value [3] is on record?
The value was “No significant increase”.

And the “reduction of myoglobin-induced cell death by nitrite binding” value [4]?
Its value is 75%.

What about the “Liver mRNA HO-1” value ([5]; 4 h after Rx treatment) of the same molecule?
Its value is 1.83 ± 0.33.

And the “Liver protein HO-1 protein” value ([5]; 4 h after Rx treatment)?
The value was 17 ± 2.

What about the “Liver mRNA HO-1” value ([5]; 18 h after Rx treatment) of the same molecule?
The value was 0.82 ± 0.07.

What about the “Liver protein HO-1 protein” value ([5]; 18 h after Rx treatment) of the same molecule?
The value was 14.9 ± 0.3.

What about the “increase in renal HO-1 mRNA” value ([6]; 4 hours after IV injection, vs controls) of the same molecule?
The value was “only modest increases”.

What about the “Kidney mRNA cortex HO-1” value ([6]; 18 h after Rx treatment) of the same molecule?
The value was 0.58 ± 0.18.

And the “Kidney protein HO-1” value ([6]; 18 h after Rx treatment)?
The value was 30 ± 6.

What about the “increase in renal HO-1 protein” value ([6]; 18 hours post-treatment, vs control values) of the same molecule?
Its value is “only relatively small HO-1 protein increases”.

And the “Kidney HO-1 protein” value [6, 15]?
Its value is 36.1 ± 2.9.

And the “Kidney mRNA HO-1” value [6, 15]?
The value was 3.38 ± 0.38.

And the “Cardiac mRNA Haptoglobin” value ([7]; 4 h after Rx treatment)?
The value was 0.75 ± 0.10.

And the “Cardiac protein Haptoglobin” value ([7]; 4 h after Rx treatment)?
Its value is 40.4 ± 8.6.

And the “Cardiac mRNA Haptoglobin” value ([7]; 18 h after Rx treatment)?
Its value is 0.53 ± 0.21.

What about the “Cardiac protein Haptoglobin” value ([7]; 18 h after Rx treatment) of the same molecule?
Its value is 249.6 ± 15.0.

What about the “increase in renal IL-10 mRNA” value ([8]; 4 hours after injection) of the same molecule?
The value was “either minimal or no impact”.

What about the “Kidney mRNA cortex IL-10” value ([8]; 18 h after Rx treatment) of the same molecule?
The value was 0.43 ± 0.10.

What about the “Kidney protein IL-10” value ([8]; 18 h after Rx treatment) of the same molecule?
The value was 292 ± 54.

And the “increase in renal IL-10 protein” value ([8]; 18 hours after injection)?
Its value is “absence of IL-10 protein increases”.

What about the “Kidney IL-10 (protein)” value [8, 15] of the same molecule?
Its value is 265 ± 54.

What about the “Kidney mRNA IL-10” value [8, 15] of the same molecule?
Its value is 1.45 ± 0.6.

And the “Cardiac mRNA IL-10” value ([9]; 4 h after Rx treatment)?
The value was 0.86 ± 0.11.

And the “Cardiac protein IL-10” value ([9]; 4 h after Rx treatment)?
The value was 21 ± 12.

And the “Cardiac mRNA IL-10” value ([9]; 18 h after Rx treatment)?
The value was 0.67 ± 0.10.

And the “Cardiac protein IL-10” value ([9]; 18 h after Rx treatment)?
Its value is 14.5 ± 10^.

And the “Liver mRNA IL-10” value ([10]; 4 h after Rx treatment)?
Its value is 0.67 ± 0.46.

What about the “Liver protein IL-10” value ([10]; 4 h after Rx treatment) of the same molecule?
Its value is 286 ± 32.

What about the “Liver mRNA IL-10” value ([10]; 18 h after Rx treatment) of the same molecule?
Its value is 0.06 ± 0.02.

And the “Liver protein IL-10” value ([10]; 18 h after Rx treatment)?
Its value is 5988 ± 549.

What about the “Cardiac Protein HO-1” value ([11]; 4 h after Rx treatment) of the same molecule?
The value was 1.64 ± 0.19.

What about the “Cardiac mRNA HO-1” value ([11]; 4 h after Rx treatment) of the same molecule?
Its value is 0.09 ± 0.01.

What about the “Cardiac mRNA HO-1” value ([11]; 18 h after Rx treatment) of the same molecule?
The value was 0.08 ± 0.01.

What about the “protection against glycerol-induced AKI (BUN/creatinine levels)” value [12] of the same molecule?
The value was “modest protection”.

And the “Kidney mRNA cortex Haptoglobin” value ([13]; 18 h after Rx treatment)?
The value was 0.24 ± 0.04.

And the “Kidney protein Haptoglobin” value ([13]; 18 h after Rx treatment)?
The value was 183.8 ± 20.4.

And the “increase in renal cortical haptoglobin protein levels” value ([13]; 18 hours after injections)?
The value was “comparably increased”.

And the “Kidney Haptoglobin (protein)” value [13, 15]?
Its value is 17.6 ± 1^.

And the “Kidney mRNA Haptoglobin” value [13, 15]?
The value was 1.94 ± 0.31.

What about the “Liver mRNA Haptoglobin” value ([14]; 4 h after Rx treatment) of the same molecule?
The value was 0.98 ± 0.1.

What about the “Liver protein Haptoglobin” value ([14]; 4 h after Rx treatment) of the same molecule?
Its value is 359.5 ± 39.6.

What about the “Liver mRNA Haptoglobin” value ([14]; 18 h after Rx treatment) of the same molecule?
Its value is 0.91 ± 0.07.

What about the “Liver protein Haptoglobin” value ([14]; 18 h after Rx treatment) of the same molecule?
Its value is 358.8 ± 32.8.
